The assay has as its target ubiquitin (wild type, Q40Ub) (UniProt P0CG48 1-76). The experiment in a line: NMR chemical shift perturbations of the conjugate against the free proteins.

B1: Ubc13 C87K/K92T/K94Q (enzyme)
chain: MAGLPRRIIKETQRLLAEPVPGIKAEPDESNARYFHVVIAGPQDSPFEGGTFKLELFLPEEYPMAAPKVRFMTKIYHPNVDKLGRIKLDILTDQWSPALQIRTVLLSIQALLSAPNPDDPLANDVAEQWKTNEAQAIETARAWTRLYAMNNI
B1: the binding result is “binds”.

Values taken from doi:10.1101/2023.05.22.541748 (bioRxiv, 2023).
